Results published in PMC3506661.

Biological target: BAK (UniProt Q16611)
Experiment: biotinylated BH3 peptide pull-down from lysate
Settings: reference: wild type, okadaic acid then UV; sites S117

With “BAK (from UniProt Q16611) S117A, okadaic acid then UV” the “binding against the reference” value was “gained”.
